In the supplement of paper PMC12042874:
± gives the uncertainty stated by the source.

Assay: amyloid nucleation score (Sup35N fusion, yeast selection) (log enrichment); library NNK3; higher = more nucleation; inactive = no reads after selection
Summary of the method: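 The nucleation score is the DiMSum log enrichment of output over input reads, centred on the mode score of non-aggregating sequences. Only sequences with 100 or more input reads were scored, using Illumina sequencing of input and output plasmid inserts. Psi-negative yeast expressing Sup35N fused to peptides of 20 random codons were induced 24 hours with 100 μM copper sulfate and grown 7 days at 30°C on medium lacking adenine and uracil.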
With ISEVLLCAFVVYIMRKR the amyloid nucleation score was 0.953 ± 0.11.
For RSGWS, the amyloid nucleation score was “inactive”.
For NLAFP, the amyloid nucleation score was “inactive”.
In the case of SWGFHEWSVACQICRYVDRP, the amyloid nucleation score is reported as “inactive”.
For PSHTLRNTSLSMSVSTTHKA, the amyloid nucleation score was “inactive”.
For ILGFLCPLFSFFFSGGYFLG, the amyloid nucleation score was “inactive”.
With GVFRPMWVLARVDSQNLASL the amyloid nucleation score was “inactive”.
In the case of LLLPWCYFRRKMGRR, the amyloid nucleation score is reported as “inactive”.
In the case of IFCAKSIIGIPGTDPRCRPD, the amyloid nucleation score is reported as 1.5 ± 0.13.
With LMLNGHAVHMSSNSEALVIC the amyloid nucleation score was “inactive”.
In the case of SVLSVV, the amyloid nucleation score is reported as “inactive”.
For ELFDERQRLEPI, the amyloid nucleation score was “inactive”.
In the case of FYGECKSVSGNCLTMNGRYT, the amyloid nucleation score is reported as -0.561 ± 0.59.
With QEYEGLRDSVKTVEGYVWLM the amyloid nucleation score was “inactive”.
With PEFDLCDINSSLGSMRFWQW the amyloid nucleation score was “inactive”.
For LFSMEKGEYGNRRGYAVYFL, the amyloid nucleation score was 1.74 ± 0.084.
In the case of FHNAFAFLSHWGVMVRSFEG, the amyloid nucleation score is reported as “inactive”.
For GSKLICIVWLFLLFG, the amyloid nucleation score was “inactive”.
For ADVNTL, the amyloid nucleation score was “inactive”.
With SRTYKHKALAQFPYKYWCVP the amyloid nucleation score was “inactive”.
With GSLRNPVSGRLENVGGRAWG the amyloid nucleation score was “inactive”.
With RISLDNTWGFL the amyloid nucleation score was “inactive”.
In the case of FIMNARGVPLEGWWSDGSDK, the amyloid nucleation score is reported as “inactive”.
With RAPAMGL the amyloid nucleation score was “inactive”.
For HTWSCCYFLS, the amyloid nucleation score was 2.54 ± 0.063.
In the case of SRRFTLPGGSMFTEVLM, the amyloid nucleation score is reported as “inactive”.
In the case of AIRPKSGAWSHLCYASIG, the amyloid nucleation score is reported as “inactive”.
For QCLQALNMKIVFDHVRFRVR, the amyloid nucleation score was “inactive”.
In the case of MLCAL, the amyloid nucleation score is reported as “inactive”.
With MIVWTHNYLEGELFVSLPLV the amyloid nucleation score was “inactive”.
With VHGVRV the amyloid nucleation score was “inactive”.
With NGVILYETSAWVTNVYSRFK the amyloid nucleation score was 1.2 ± 0.18.
For CLCWKAVLDRELFKSGFTAA, the amyloid nucleation score was “inactive”.
Substance HGTAGLPK has an amyloid nucleation score of 0.807 ± 0.14.
In the case of TATYKSYCTL, the amyloid nucleation score is reported as “inactive”.
For DFSGVSLDVITRRCLGFIGA, the amyloid nucleation score was “inactive”.
With WCDDFWLYVVLGYGLCFVLC the amyloid nucleation score was “inactive”.
With FTCDTMKYSSRYSLFYVRVS the amyloid nucleation score was 0.205 ± 0.77.
In the case of EVGLRSLMFHSGQGIRMYNY, the amyloid nucleation score is reported as “inactive”.
With FCEFWYLNSRKEATELRP the amyloid nucleation score was “inactive”.
For QFTGHINRDVNM, the amyloid nucleation score was “inactive”.
With CMMSWIDSNFRGSEMLTH the amyloid nucleation score was “inactive”.
With QVCYG the amyloid nucleation score was “inactive”.
With CTNKFVWKFVKFNNLCLLAY the amyloid nucleation score was “inactive”.
With EERIT the amyloid nucleation score was “inactive”.
With HWTGVAELLAGYCV the amyloid nucleation score was “inactive”.
For GSYFRATACPSLFCSFRVEW, the amyloid nucleation score was “inactive”.
For MSVQGDHYFPT, the amyloid nucleation score was “inactive”.
For FMLWYSPKLFG, the amyloid nucleation score was “inactive”.
For ASRSMTGSLCLFAFMV, the amyloid nucleation score was “inactive”.
In the case of WDFDVSVIGLMYKFRSVELG, the amyloid nucleation score is reported as “inactive”.
For GAHWNASSHICGRKD, the amyloid nucleation score was “inactive”.
Substance IDGWRGELVMTYN has an amyloid nucleation score of 0.025 ± 0.48.
HNLNIHYMISRVNAYTCTFI gave an amyloid nucleation score of 2.5 ± 0.074.
In the case of TWRYRKMYYRSDVNHCLFEV, the amyloid nucleation score is reported as “inactive”.
In the case of VRYSPDRKFGETCIKQAVMT, the amyloid nucleation score is reported as “inactive”.
In the case of VFKMACEWSALWWNLLHTYS, the amyloid nucleation score is reported as “inactive”.
In the case of MVVRDDKIWIAFRCLYDCCV, the amyloid nucleation score is reported as “inactive”.
LEFVY gave an amyloid nucleation score of 0.238 ± 0.52.
Substance LKPQHSSGGSLSRMIYRPFL has an amyloid nucleation score of 2.18 ± 0.088.
With GRLINYSILKMVTVWFYLL the amyloid nucleation score was “inactive”.
For TTMRCEIKSLYWIISQCWLD, the amyloid nucleation score was “inactive”.
For KYWDPQFP, the amyloid nucleation score was “inactive”.
For TCSFECGACTRQVDAVCQLG, the amyloid nucleation score was “inactive”.
With YLSICVMFLVASRVRSISSI the amyloid nucleation score was “inactive”.
With CVDFR the amyloid nucleation score was “inactive”.
In the case of ILGIRYVIRINFLTRVRIHN, the amyloid nucleation score is reported as “inactive”.
For TYLLNGTILLNPCKLC, the amyloid nucleation score was “inactive”.
IIPKRLDVR gave an amyloid nucleation score of -0.397 ± 0.7.
For LCGLERLKVMQWHSVPRKHI, the amyloid nucleation score was “inactive”.
For SSFNIPMPSNYPKMIDLLFT, the amyloid nucleation score was “inactive”.
For CFLCFTPHSFHVCSI, the amyloid nucleation score was “inactive”.
In the case of VVCLYILHIPCSVRRHTLAD, the amyloid nucleation score is reported as “inactive”.
For YEDQRSLRFCR, the amyloid nucleation score was “inactive”.
In the case of CDAWILFFWHVVNISYRVDK, the amyloid nucleation score is reported as “inactive”.
For WRRLEGSHA, the amyloid nucleation score was “inactive”.
In the case of WVFNGARKGM, the amyloid nucleation score is reported as “inactive”.
With DGMSMCRQLLKGVQKPDYLL the amyloid nucleation score was “inactive”.
In the case of DGNLPPNWLKGACTFRWTFI, the amyloid nucleation score is reported as “inactive”.
VEIGCANSRWDLLGVVCCLG gave an amyloid nucleation score of 1.27 ± 0.17.
For FSKIHI, the amyloid nucleation score was “inactive”.
For MSKWYYRWASYNCWFFDRPV, the amyloid nucleation score was “inactive”.
For FMVMRVPRCPVDCNVPGGIN, the amyloid nucleation score was “inactive”.
In the case of TGVFDFRRVVLLVSHSEV, the amyloid nucleation score is reported as “inactive”.
For YASWKLRTN, the amyloid nucleation score was “inactive”.
With SFNFCLFASLSALCMTRVEF the amyloid nucleation score was “inactive”.
In the case of RRNEFVLWYLGDTSWYVWFS, the amyloid nucleation score is reported as 0.268 ± 0.27.
In the case of QFSRWI, the amyloid nucleation score is reported as “inactive”.
For NRACKLCSFKSGQRSNTMGF, the amyloid nucleation score was “inactive”.
With IGVQATVICYWRIMNRGHKR the amyloid nucleation score was “inactive”.
In the case of QGHNHYVTILRFIWFLRPAM, the amyloid nucleation score is reported as “inactive”.
In the case of FFNKGCMFCSREAVIVQIWG, the amyloid nucleation score is reported as 2.62 ± 0.082.
For DNSVNKYKKTNVSVISARVR, the amyloid nucleation score was “inactive”.
For VWFGESAFRLVSELCIIKDV, the amyloid nucleation score was “inactive”.
For LNKLTKIVVSHKGLCFELGG, the amyloid nucleation score was “inactive”.
For LGRCFVFMRTVCFDSA, the amyloid nucleation score was “inactive”.
With QIMIIISMRVSNMCGVSYLG the amyloid nucleation score was “inactive”.
With CLPQHKISNH the amyloid nucleation score was “inactive”.
In the case of LEGGSITCLSPC, the amyloid nucleation score is reported as “inactive”.
With YNRKWDMQY the amyloid nucleation score was “inactive”.
For KYEMTIPSSVLRALSNKHWL, the amyloid nucleation score was -0.539 ± 1.4.
Substance MSWGGCNAVRKFFECRRRVQ has an amyloid nucleation score of 0.222 ± 0.5.
In the case of LVRVGSSNYLVNQIRPNISA, the amyloid nucleation score is reported as “inactive”.
For RLMYKMMHVSGDEECLFVMV, the amyloid nucleation score was “inactive”.
SSGLFLSISLNDGWSRGVWS gave an amyloid nucleation score of 2.77 ± 0.076.
For FFWVMISGVFLRRIHDSRSA, the amyloid nucleation score was “inactive”.
For RVRCDWCFGRGVCMTAIRQD, the amyloid nucleation score was -0.147 ± 1.1.
With TNTRASMFIFCVHSMSLLFY the amyloid nucleation score was “inactive”.
With SGLRASSSVMSCAYLTISWN the amyloid nucleation score was “inactive”.
For VVGSSIK, the amyloid nucleation score was “inactive”.
In the case of KIYIILNGWQVSLIDYYGGK, the amyloid nucleation score is reported as 2.58 ± 0.056.
In the case of QVSFFSQIRV, the amyloid nucleation score is reported as “inactive”.
For TSMMSWQSSHCHVYWRTDWV, the amyloid nucleation score was 0.457 ± 0.4.
For SNYSV, the amyloid nucleation score was “inactive”.
In the case of CVGSVPVMTKMVGDMGMASR, the amyloid nucleation score is reported as “inactive”.
In the case of AVCFRVLCFKLLTT, the amyloid nucleation score is reported as “inactive”.
In the case of TCHDGHGAGRTVSGVFGGVA, the amyloid nucleation score is reported as “inactive”.
With VVITYSFRVQHV the amyloid nucleation score was “inactive”.
In the case of NIGNHYCRYNGWDMLNRGEL, the amyloid nucleation score is reported as “inactive”.
For LRYNRDVTS, the amyloid nucleation score was “inactive”.
For YPLRSGF, the amyloid nucleation score was “inactive”.
With VGLWYSDIISVFCLNLMRLV the amyloid nucleation score was “inactive”.
For LNQYLYFVRDMGDVMFCLYF, the amyloid nucleation score was “inactive”.
With RLEGRLLCKWVCP the amyloid nucleation score was 1.96 ± 0.069.
For MRLDRS, the amyloid nucleation score was “inactive”.
With MSGALFMGLGTGRSRVTRNL the amyloid nucleation score was “inactive”.
For PDRMIGGLSFRKFDISCPYA, the amyloid nucleation score was “inactive”.
With NLKRTQLFLHLFRMGCFHT the amyloid nucleation score was “inactive”.
For YVAVGKKLNHRSSSSLSRFF, the amyloid nucleation score was “inactive”.
For DTLPHAVKLIEKM, the amyloid nucleation score was “inactive”.
With IWVSYWAGFVRSFSRVCNLV the amyloid nucleation score was “inactive”.
VAIIAYQWSIPSMAGPVNRR showed an amyloid nucleation score of 0.652 ± 0.28.
Work on LVCFARVRKMEAEAFMKLVW yielded an amyloid nucleation score of 0.64 ± 0.26.
Work on YGFMCLVCIGTCDCKRSWQG yielded an amyloid nucleation score of 2.28 ± 0.086.
In the case of QVGPWLDNSNSFCDDIKGMC, the amyloid nucleation score is reported as “inactive”.
For TDPFLTCK, the amyloid nucleation score was “inactive”.
With ILCCTCYLRDIDMVVGACDG the amyloid nucleation score was 1.62 ± 0.063.
Substance ITNIFFFHSTLLRSCRASGN has an amyloid nucleation score of 2.47 ± 0.063.
In the case of AKFSGVLKAYAVREATYCLG, the amyloid nucleation score is reported as “inactive”.
For RTWNVESFREFGCFKINLGP, the amyloid nucleation score was “inactive”.
In the case of KGGWEADLYYVVCLVIISIW, the amyloid nucleation score is reported as “inactive”.
For FFMPFRNLIHKLVTTEELYR, the amyloid nucleation score was “inactive”.
For REDILLRSSFSDSHVGRLKT, the amyloid nucleation score was “inactive”.
With TCYITA the amyloid nucleation score was “inactive”.
With MWLRFKDFVVRWN the amyloid nucleation score was “inactive”.
With WKALFSSTSCYTGVG the amyloid nucleation score was “inactive”.
GMVWFRFLKYAKC showed an amyloid nucleation score of -1.54 ± 2.4.
For RDLCIPWLCRAFFPAMCVVI, the amyloid nucleation score was “inactive”.
Substance SLTGLVILMAYRDPPGLAQF has an amyloid nucleation score of 1.46 ± 0.13.
For MLGDLAYCGYMSSAGVGSLI, the amyloid nucleation score was “inactive”.
With LYGGLEHESIMFIRCSGWIC the amyloid nucleation score was “inactive”.
In the case of GNITTRLHFFTNGFRPSFHG, the amyloid nucleation score is reported as “inactive”.
In the case of SCDLELSNLELRVWRDTVRK, the amyloid nucleation score is reported as 1.8 ± 0.069.
In the case of RKPFENIDS, the amyloid nucleation score is reported as “inactive”.
NVQQALIHVSAHGCRFFLTC gave an amyloid nucleation score of 2.71 ± 0.065.
For LFPYMDCNSGTELFYGFIVQ, the amyloid nucleation score was “inactive”.
With KICAK the amyloid nucleation score was “inactive”.
With LVSEPFQMRSTGGIGLIAVY the amyloid nucleation score was “inactive”.
With IIVLPEKRPR the amyloid nucleation score was “inactive”.
For CYRYAIMNAFS, the amyloid nucleation score was “inactive”.
